System: MS2 coat protein
Assay: apparent KD of MS2 coat protein; designed switch direction (-1 OFF switch, 1 ON switch): -1; higher = weaker reporter binding
Method in brief: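 Transcription of designed RNA switches on Illumina chips was done by stalled E. coli RNA polymerase. SNAP-549-labelled MS2 coat protein was then titrated in doubling steps from 0.7 or 1.5 nM to 3 µM, with steps of 0.8–1.5 h at the lowest and 10–20 min at the highest concentration. The per-design median over clusters of curve-fitted normalised fluorescence is reported as apparent KD.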

[1] = input ligand: microRNA oligo, concentration not stated

| Sequence | apparent KD of MS2 coat protein (input ligand: FMN 200 uM) | apparent KD of MS2 coat protein (input ligand: none) | apparent KD of MS2 coat protein [1] | apparent KD of MS2 coat protein (Eterna round: R95, input ligand: FMN 200 uM) | apparent KD of MS2 coat protein (Eterna round: R95, input ligand: microRNA oligo, concentration not stated) | apparent KD of MS2 coat protein (Eterna round: R95, input ligand: none) |
| --- | --- | --- | --- | --- | --- | --- |
| GGUGGUAUUGUUAGGAUAUGGCAUGCCCGAGGCGUCUAGAAGGGACAUGAGGAUCACCCAUGUCUAGAAUUAAU [Eternabot (L2) Solution 53] (Eterna round: R97, puzzle: Brourd's mod of Exclusion 4) | 41.2 nM | 45.5 nM | – | – | – | – |
| UACACUGCAUGAGGAUCAAACAUGAGGAUCACCCAUGUAUAGCAGGCUUUUUGUGCGUCUUAUAAUUAUGUAGUGUA [Electric Eye 18 - Jieux - Sensor, turn-off variant 1] (Eterna round: R97, puzzle: Sensor, turn-off variant 1) | 14.9 nM | 15.3 nM | – | – | – | – |
| ACAUUGGUAGUGAGGAUAUCGGUGAGAUAGAAUGACGAGAAGGCACAUGAGGAUCACCCAUGUAAGAUUGGGCA [JR_BMEx4_Sub042] (Eterna round: R97, puzzle: Brourd's mod of Exclusion 4) | 286 nM | 251 nM | – | – | – | – |
| UAUUAGCAAGUGAGGUCCCACAUGAGGAUCACCCAUGUGCUCGUCUUAUAAGGUACUGUGACGAGAGUCACGGUACC [Mat - Sensor, turn-off var - Eli Mod - D52] (Eterna round: R97, puzzle: Sensor, turn-off variant 1) | 40.2 nM | 44.5 nM | – | – | – | – |
| UAUGGUCUUGAGGAUAUACCAGGGUGAGUCCAGGUAGAAGGUAGGACAUGAGGAUCACCCAUGUGACGUAGUGU [Eternabot (L2) Solution 49] (Eterna round: R97, puzzle: Exclusion 6) | 434 nM | 354 nM | – | – | – | – |
| GAUUAGGUAGGAUAUACGUAGUGAGCCAGCGAGAGCUGGUAACAUGAGGAUCACCCAUGUAGAAGGACCAUUAA [Xeorqulaus] (Eterna round: R97, puzzle: Exclusion 2) | 145 nM | 72.4 nM | – | – | – | – |
| UACAUGAGGAUCACCCAUGUUUUGUCGUGUAUGGUAUUUAUCUAGGAUAUCAAUUGAUUUAUUUAUGAGAAGGAGAAUAUUAAU [JMF's solution 15] (Eterna round: R96, puzzle: Exclusion NG 3) | 42.5 nM | 39.5 nM | 26.8 nM | – | – | – |
| CGAAGUAGAAACCGAUCCUACAUGAGGAUCACCCAUGUAGCAAGACGUGCACGCGAAGCUCGUCAGACUACCAGAAA [salish99_TOv1_r3_016] (puzzle: Sensor v3, turn-off variant 1) | – | – | – | 200 nM | 213 nM | 304 nM |
| AUUGAAUGAAACCUCUAAUACAUGAGGAUCACCCAUGUUAUCGAGGAUAUGCAGAAUAGAUUAGAGCAGAAGGCGAAGUAAUAU [JR_ExcNG3_Sub024] (Eterna round: R96, puzzle: Exclusion NG 3) | 17.7 nM | 12.8 nM | 9.67 nM | – | – | – |
| ACAGUUCUGCAAGGAUAUCGUUCUAGUUUAGUACGAGAAGGUGCUUUAGUUUUUUCUUUGUGUUGACAUGAGGAUCACCCAUGU [JR_ExcNG1_Sub054] (Eterna round: R96, puzzle: Exclusion NG 1) | – | – | 17.5 nM | – | – | – |
| UAUUAGCAAGCGAGAUCCCACAUGAGGAUCACCCAUGUGCUCGUCUUAUAUAAGGUACUGUACGAAAGUACGGUACC [Sensor 3, v1 - 91 v6] (Eterna round: R97, puzzle: Sensor, turn-off variant 1) | 16.6 nM | 16.2 nM | – | – | – | – |
| UAUGAGCUAGGAUAUGCUUUGGGCUCGCUUUCCUUCGAUAAACUUGAGGAUCACCCAAGUAGAAGGAGCUUGUA [Mod 32 - Jieux - Exclusion 2] (Eterna round: R97, puzzle: Exclusion 2) | 36.5 nM | 15.8 nM | – | – | – | – |
| UUUUGGCAAGCGAGAUCCUACAUGAGGAUCACCCAUGUUGACCAUGGUUUCCAUGGUCAUUUUGCUCGUCUUGUGUG [jl TITIN mod 2] (Eterna round: R97, puzzle: Sensor, turn-off variant 1) | 31.8 nM | 32.3 nM | – | – | – | – |
| CAAUAGGGAGGAUAUCCAAUAUAUGACAUGAGGAUCACCCAUGUUUCCACUCGUACCUCCGGAGAAGGCCCAUAAG [Ex5 #6] (Eterna round: R97, puzzle: Exclusion 5) | 21.3 nM | 24.1 nM | – | – | – | – |
| GCCAGUUUUGUGAGGAUAUCGUGCCGUUAGCGGCAUGAGAAGGCACAUGAGGAUCACCCAUGUGUGCAUCCGAG [Eternabot (L1) Solution 91] (Eterna round: R97, puzzle: Brourd's mod of Exclusion 4) | 157 nM | 28.4 nM | – | – | – | – |
| AAGCUGUCAGGAUAUCGUUAAUUUAGUUGUUUGUAUUAGUUCGAGAAGGGACAUGAGGAUCACCCAUGUAUGAA [Ex4 #41] (Eterna round: R97, puzzle: Exclusion 4) | 62.7 nM | 31 nM | – | – | – | – |
| UAGUGUUACACAGGAUAUCGCCUCUUAUUACAUGAGGAUCACCCAUGUUUAGUUAGUUACAUGUACGAGAAGGGUGUUGUAGUU [JR_ExcNG2_Sub039] (Eterna round: R96, puzzle: Exclusion NG 2) | 787 nM | 1010 nM | 681 nM | – | – | – |
